Laboratory results from publication doi:10.1101/2025.09.03.673757.

Legend:
[1] = biological target: N-terminally His6-tagged Gαo E246K mutant (rat) (UniProt P59215)
[2] = biological target: N-terminally His6-tagged wild-type Gαo (rat) (UniProt P59215)

Substance: RGS16 domain (domain or fragment)
- kGAP (single-turnover GTPase assay, 400 nM Gα, 20 nM RGS16) [1]: 1.7 min⁻¹
- kGAP (single-turnover GTPase assay, 400 nM Gα, 20 nM RGS16) [2]: 1.6 min⁻¹
